The target of assay [1] is keratinocyte growth factor (KGF) (human) (UniProt P21781). Briefly: 50% displacement of 125I-KGF by unlabeled KGF, fusion protein captured on Gamma Bind G (Scatchard analysis). (In general: In a radioligand displacement assay an active substance lowers the binding of a labelled ligand.)
For assay [2], the target named is keratinocyte growth factor receptor (KGFR) (UniProt P21803). As to the kind of experiment: flow cytometry on KGFR-containing B5-589 cells and NIH 3T3 transfectants, FITC rabbit anti-mouse IgG. (In general: Flow cytometry measures light scatter and fluorescence of single cells or particles in a stream.)
The target is the same in assay [3]. As to the kind of experiment: cell-based or functional assay.
Assay [4] has the same target. As to the kind of experiment: competition with 125I-KGF on 32D cells expressing KGFR.
Assay [5] deals with KGFR-HFc fusion protein (construct not specified). As to the kind of experiment: binding of 125I-aFGF to KGFR-HFc in solution, capture on Gamma Bind G.
The target in assay [6] is bovine brain aFGF (bovine) (UniProt P03968). As to the kind of experiment: comparison value for native KGFR; method not described.
For assay [7], the target named is keratinocyte growth factor (KGF) (human) (UniProt P21781). As to the kind of experiment: comparison value for native KGFR on epithelial cells; method not described.

Sequence of KGF-HFc fusion protein (P21781 other isoform, or with tags, fused parts or gaps limits assumed): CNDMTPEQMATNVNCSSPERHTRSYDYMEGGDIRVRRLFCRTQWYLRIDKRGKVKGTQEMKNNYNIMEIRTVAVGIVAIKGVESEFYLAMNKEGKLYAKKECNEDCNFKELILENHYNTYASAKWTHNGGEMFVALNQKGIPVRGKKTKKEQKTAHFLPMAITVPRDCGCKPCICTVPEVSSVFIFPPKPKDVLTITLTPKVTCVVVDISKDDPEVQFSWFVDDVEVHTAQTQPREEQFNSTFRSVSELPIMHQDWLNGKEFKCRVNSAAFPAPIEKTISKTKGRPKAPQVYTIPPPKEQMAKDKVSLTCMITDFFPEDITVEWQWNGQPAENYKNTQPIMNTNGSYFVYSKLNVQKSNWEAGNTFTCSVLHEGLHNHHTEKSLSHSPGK
Sequence of keratinocyte growth factor (KGF) (human) (P21781 32-194 limits assumed): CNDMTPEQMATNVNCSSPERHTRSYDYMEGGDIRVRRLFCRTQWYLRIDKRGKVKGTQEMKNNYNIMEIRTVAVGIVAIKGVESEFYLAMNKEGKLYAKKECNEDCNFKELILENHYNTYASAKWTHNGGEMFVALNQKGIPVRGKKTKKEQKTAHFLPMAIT
Sequence of bovine brain aFGF (P03968 16-155 limits assumed): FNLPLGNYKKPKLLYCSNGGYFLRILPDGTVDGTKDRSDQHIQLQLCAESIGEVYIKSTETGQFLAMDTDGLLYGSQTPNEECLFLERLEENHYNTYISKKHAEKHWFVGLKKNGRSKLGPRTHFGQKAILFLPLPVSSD
Sequence of bovine brain aFGF (bovine) (P03968 16-155 limits assumed): as above

Take “D3-HFc fusion protein (from UniProt P21803 157-232; P01868 98-324)”: the Kd in assay [1] came out at 0.02 nM.

In the case of “KGF-HFc fusion protein (from UniProt P21781 32-194; P01868 98-324)”, the fold increase in fluorescent intensity compared to untransfected NIH 3T3 cells in assay [2] lay within 10 to 100 fold. For the same substance, in assay [3], the half-maximal stimulation of 3H-thymidine uptake in BALB/MK cells stood at 45 pM and the stimulation of 3H-thymidine uptake in BALB/MK cells was more than 20 fold. The substance also returned a Kd in assay [4] of 1.4 nM.

In assay [5], “bovine brain aFGF (from UniProt P03968 16-155) (ligand)” displayed a ligand concentration at which saturable binding was achieved of 40 to 50 ng/mL.

In the case of “keratinocyte growth factor receptor (KGFR) (from UniProt P21803 22-821)”, the Kd in assay [6] amounted to 0.6 nM; in assay [7], 0.18 nM.

A word on the Kd: it is the constant that tells how readily two partners part at equilibrium. Low readings indicate higher affinity, high ones lower affinity.

Values taken from patent publication US6403769.
